Measured values: patent publication US8026218 (UNIVERSITY OF ARIZONA, dated 2011)
Square brackets hold non-standard residues; d marks the D form. Primed or numbered codes have the meaning given here. Ends that are not written are not given here. * marks the point of attachment. NHBn(CF3)2 = C-terminal amide NH-Bn(CF3)2, a benzyl group carrying two CF3; Glc = O-glucosyl on Ser side chain (Ser(OGlu)/Ser(OGlc)); NH(3,5-(CF3)2-benzyl) = FC(F)(F)c1cc(CN*)cc(C(F)(F)F)c1; NMeBn(3,5-(CF3)2) = CN(Cc1cc(C(F)(F)F)cc(C(F)(F)F)c1)*; OBzl(3,5-(CF3)2) = FC(F)(F)c1cc(CO*)cc(C(F)(F)F)c1; Glc″ = glucosyl on the serine side-chain oxygen; NH‑Bn(CF3)2 = C-terminal Bn(CF3)2 amide; Dmt = Cc1cc(O)cc(C)c1C[C@H](N)C(=O)O; Nle = CCCC[C@H](N)C(=O)O; OBn = c1ccc(CO*)cc1

B1: TyrDCysGlyPheMetProLeuTrpOBn(CF3)2 (TY031) (peptide)
peptide: Y[dC]GFMPLW-{OBzl(3,5-(CF3)2)}
B2: TyrDAlaGlyPhePheProLeuTrpOBn (TY014) (peptide)
peptide: Y[dA]GFFPLW-OBn
B3: TyrDAlaGlyPheSer(OGlu)ProLeuTrpNHBn(CF3)2 (TY042) (peptide)
peptide: Y[dA]GFSPLW-{NH(3,5-(CF3)2-benzyl)}
modifications: not fully specified (residue 5); printed as TyrDAlaGlyPheSer(OGlu)ProLeuTrpNHBn(CF3)2
B4: TyrDAlaGlyPheGlyProLeuTrpOBn(CF3)2 (TY006) (peptide)
peptide: Y[dA]GFGPLW-{OBzl(3,5-(CF3)2)}
B5: TyrDAlaGlyPheLeuProLeuTrpOBn(CF3)2 (TY004) (peptide)
peptide: Y[dA]GFLPLW-{OBzl(3,5-(CF3)2)}
B6: TyrDAlaGlyPhePheProLeuTrpOBn(CF3)2 (TY003) (peptide)
peptide: Y[dA]GFFPLW-{OBzl(3,5-(CF3)2)}
B7: TyrDAlaGlyPhePheProLeuTrpNMeBn(CF3)2 (TY017) (peptide)
peptide: Y[dA]GFFPLW-{NMeBn(3,5-(CF3)2)}
B8: TyrDAlaGlyPhePheProLeuTrpNHBn(CF3)2 (TY015) (peptide)
peptide: Y[dA]GFFPLW-{NHBn(CF3)2}
B9: TyrDAlaGlyPheDPheProLeuTrpOBn(CF3)2 (TY007) (peptide)
peptide: Y[dA]GF[dF]PLW-{OBzl(3,5-(CF3)2)}
B10: MetProLeuTrpNHBn(CF3)2 (TY051) (peptide)
peptide: MPLW-{NHBn(CF3)2}
B11: TyrDAlaGlyPheNleSer(OGlu)LeuTrpNHBn(CF3)2 (TY044) (peptide)
peptide: Y[dA]GF[Nle]S(Glc″)LW-{NH‑Bn(CF3)2}
B12: DmtDAlaGlyPheNleProSer(OGlu)TrpNHBn(CF3)2 (TY056) (peptide)
peptide: [Dmt][dA]GF[Nle]PS(Glc)W-{NH‑Bn(CF3)2}
B13: TyrDAlaGlyPheNleProSer(OGlu)TrpNHBn(CF3)2 (TY041) (peptide)
peptide: Y[dA]GF[Nle]PS(Glc)W-{NH‑Bn(CF3)2}

Biological target: T1, rat µ opioid receptor (rat, UniProt P33535 1-398)
T1 construct: whole, on cells; Used as crude membrane preparations of the transfected cells; also called rMOR; MOR
T1 sequence (P33535 whole entry): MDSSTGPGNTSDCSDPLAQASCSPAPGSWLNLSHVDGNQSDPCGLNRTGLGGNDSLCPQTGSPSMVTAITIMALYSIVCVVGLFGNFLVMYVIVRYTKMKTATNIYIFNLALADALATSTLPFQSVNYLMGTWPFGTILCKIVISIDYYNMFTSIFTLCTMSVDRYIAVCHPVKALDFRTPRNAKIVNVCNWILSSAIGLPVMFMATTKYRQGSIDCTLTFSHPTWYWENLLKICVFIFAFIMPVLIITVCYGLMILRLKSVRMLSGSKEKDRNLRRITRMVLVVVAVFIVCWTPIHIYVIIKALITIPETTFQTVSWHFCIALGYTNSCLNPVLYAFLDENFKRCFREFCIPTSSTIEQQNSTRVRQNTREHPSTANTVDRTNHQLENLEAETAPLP
Test: radioligand competition vs [3H]DAMGO, membranes of rMOR cells

| Binder | Ki |
| --- | --- |
| B1 | 172 nM |
| B2 | 36.3 nM |
| B3 | 256 nM |
| B4 | 27 nM |
| B5 | 23.3 nM |
| B6 | 28.3 nM |
| B7 | 74.7 nM |
| B8 | 53.7 nM |
| B9 | 410 nM |
| B10 | 866 nM |
| B11 | 3370 nM |
| B12 | 1.9 nM |
| B13 | 8 nM |

Biological target: T2, human NK1 receptor (human, UniProt P25103 1-407)
T2 construct: whole, on cells; Used as membrane preparations of transfected CHO cells; also called hNK1; human neurokinin-1 receptor
T2 sequence (P25103 whole entry): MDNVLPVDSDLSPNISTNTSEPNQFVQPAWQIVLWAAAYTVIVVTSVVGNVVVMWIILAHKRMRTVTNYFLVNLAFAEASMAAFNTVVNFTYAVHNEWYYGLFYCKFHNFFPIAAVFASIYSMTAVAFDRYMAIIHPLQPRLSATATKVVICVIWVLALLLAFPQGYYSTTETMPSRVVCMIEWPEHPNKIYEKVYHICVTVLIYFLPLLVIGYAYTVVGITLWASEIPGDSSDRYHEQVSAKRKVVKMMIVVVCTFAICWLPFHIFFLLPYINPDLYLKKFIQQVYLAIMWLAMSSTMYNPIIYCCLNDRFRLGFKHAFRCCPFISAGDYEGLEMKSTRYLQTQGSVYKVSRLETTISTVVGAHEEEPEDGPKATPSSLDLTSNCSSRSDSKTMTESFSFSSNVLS
Test: radioligand competition vs [3H]substance P, membranes of hNK1 CHO cells

| Binder | Ki |
| --- | --- |
| B1 | 0.847 nM |
| B2 | 0.265 nM |
| B3 | 0.00027 nM |
| B4 | 0.016 nM |
| B5 | 0.016 nM |
| B6 | 0.021 nM |
| B7 | 0.213 nM |
| B8 | 0.192 nM |
| B9 | 1.3 nM |
| B10 | 0.922 nM |
| B11 | 1.3 nM |
| B12 | 0.0017 nM |

Biological target: guinea pig NK1 receptor (guinea pig, UniProt P30547 1-407)
Sequence (P30547 whole entry): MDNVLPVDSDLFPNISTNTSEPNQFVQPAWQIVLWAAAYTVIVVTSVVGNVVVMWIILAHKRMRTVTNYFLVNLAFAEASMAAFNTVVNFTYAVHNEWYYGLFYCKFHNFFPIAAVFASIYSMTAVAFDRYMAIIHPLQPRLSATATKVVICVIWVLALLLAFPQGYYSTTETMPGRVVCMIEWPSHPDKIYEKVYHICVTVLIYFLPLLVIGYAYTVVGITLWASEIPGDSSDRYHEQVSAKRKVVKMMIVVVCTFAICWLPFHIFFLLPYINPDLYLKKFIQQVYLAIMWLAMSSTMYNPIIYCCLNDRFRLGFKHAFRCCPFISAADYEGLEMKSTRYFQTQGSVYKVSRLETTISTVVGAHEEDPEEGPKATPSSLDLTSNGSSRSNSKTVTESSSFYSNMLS
Test: cell-based or functional assay

| Binder | GPI/LMMP SP antagonist Ke |
| --- | --- |
| B3 | 2.83 nM |
| B4 | 5.4 nM |
| B5 | 19.4 nM |
| B6 | 14.4 nM |
| B9 | 69.6 nM |
| B12 | 1.2 nM |
| B13 | 1.8 nM |

Biological target: T1, rat µ opioid receptor
Test: cell-based or functional assay

| Binder | GTP binding rMOR EC50 | GTP binding rMOR Emax |
| --- | --- | --- |
| B2 | 76 nM | 72.3% |
| B3 | 176 nM | 28% |
| B4 | 41.7 nM | 35.9% |
| B5 | – | 44.5% |
| B6 | 58.7 nM | 36.3% |
| B7 | 349 nM | 62.4% |
| B8 | 176 nM | 64.4% |
| B9 | 345 nM | 23.6% |
| B11 | 380 nM | 85% |
| B12 | 44.9 nM | 66% |
| B13 | 18 nM | 42% |

Biological target: µ opioid receptor of the guinea pig isolated ileum (guinea pig, UniProt P97266 1-98)
Sequence (P97266 whole entry): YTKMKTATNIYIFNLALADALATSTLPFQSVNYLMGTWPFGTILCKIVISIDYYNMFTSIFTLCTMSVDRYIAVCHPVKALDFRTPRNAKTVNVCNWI
Test: cell-based or functional assay

| Binder | GPI/LMMP opioid(mu) agonist IC50 |
| --- | --- |
| B3 | 1890 nM |
| B4 | 384 nM |
| B5 | 341 nM |
| B6 | 6.6 % @ 1 uM |
| B9 | 9.2% |
| B12 | 24.9 nM |
| B13 | 517 nM |

Biological target: T3, human δ opioid receptor (human, UniProt P41143 1-372)
T3 sequence (P41143 whole entry, stated change not applied): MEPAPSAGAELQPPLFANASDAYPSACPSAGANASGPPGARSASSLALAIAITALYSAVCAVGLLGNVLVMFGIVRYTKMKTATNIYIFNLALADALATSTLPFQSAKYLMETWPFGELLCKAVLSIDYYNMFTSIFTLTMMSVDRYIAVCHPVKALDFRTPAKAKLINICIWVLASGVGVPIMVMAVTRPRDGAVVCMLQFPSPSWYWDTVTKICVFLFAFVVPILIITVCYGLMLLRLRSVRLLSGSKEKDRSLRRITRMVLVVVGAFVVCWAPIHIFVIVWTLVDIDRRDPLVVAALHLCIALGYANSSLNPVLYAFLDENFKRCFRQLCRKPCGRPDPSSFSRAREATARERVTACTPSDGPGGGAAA
Test: cell-based or functional assay

| Binder | GTP binding hDOR EC50 | GTP binding hDOR Emax |
| --- | --- | --- |
| B2 | 25.6 nM | 137% |
| B3 | 51.9 nM | 47% |
| B4 | 50.2 nM | 33.6% |
| B5 | 9.6 nM | 42.5% |
| B6 | 20.8 nM | 39% |
| B7 | 122 nM | 125% |
| B8 | 81.4 nM | 142% |
| B9 | 16.7 nM | 22.9% |
| B13 | 7.9 nM | 62% |

Biological target: T3, human δ opioid receptor
Test: radioligand competition vs [3H]DPDPE, membranes of hDOR cells

| Binder | Ki |
| --- | --- |
| B1 | 55.4 nM |
| B2 | 11.5 nM |
| B3 | 58.5 nM |
| B4 | 36.1 nM |
| B5 | 5 nM |
| B6 | 14.6 nM |
| B7 | 26.5 nM |
| B8 | 12.5 nM |
| B9 | 110 nM |

Biological target: T4, rat NK1 receptor (rat, UniProt P14600 1-407)
T4 construct: whole, on cells; Used as membrane preparations of transfected CHO cells; also called rNK1; rat neurokinin-1 receptor
T4 sequence (P14600 whole entry): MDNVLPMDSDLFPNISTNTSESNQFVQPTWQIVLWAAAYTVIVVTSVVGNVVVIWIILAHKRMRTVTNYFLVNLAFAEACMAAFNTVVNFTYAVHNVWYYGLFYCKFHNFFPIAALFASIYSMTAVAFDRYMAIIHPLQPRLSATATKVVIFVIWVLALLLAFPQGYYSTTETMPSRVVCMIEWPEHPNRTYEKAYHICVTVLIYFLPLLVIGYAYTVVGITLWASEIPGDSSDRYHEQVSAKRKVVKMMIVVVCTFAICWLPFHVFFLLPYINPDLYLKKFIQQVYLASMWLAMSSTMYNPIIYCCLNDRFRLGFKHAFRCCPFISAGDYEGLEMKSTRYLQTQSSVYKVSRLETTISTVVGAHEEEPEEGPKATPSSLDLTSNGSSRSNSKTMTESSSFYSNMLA
Test: radioligand competition vs [3H]substance P, membranes of rNK1 CHO cells

| Binder | Ki |
| --- | --- |
| B1 | 7.06 nM |
| B2 | 124 nM |
| B3 | 1.45 nM |
| B4 | 1 nM |
| B5 | 0.8 nM |
| B6 | 0.88 nM |
| B7 | 0.57 nM |
| B8 | 0.98 nM |
| B9 | 3 nM |
| B10 | 62 nM |
| B12 | 10.1 nM |
| B13 | 13.6 nM |
